Laboratory results as given in patent publication US6436691B1, “Chemical compounds” (Zeneca Limited, priority 1995, dated 2002).
Substitutions are numbered along the chain they refer to. Numbers in names are those of the source.

Columns and labels:
Format in all cases: biochemical
[1] = Km and kcat of HCPB mutants with Hipp-Glu (Example 7); details: Hipp-Glu 0.25-8.0 mM; pH 7.5; 5 h at 37° C.
Procedure: Hipp-Glu and Hipp-Asp were diluted in range 0.25-8.0 mM and 0.25-5.0 mM respectively in 0.025 M Tris-HCL buffer, pH 7.5. Where necessary substrate samples were adjusted to pH 7.5 with 1M NaOH.
Samples were incubated for 5 h at 37° C. Reactions were terminated by the addition of 500 μl methanol/distilled water (80/20) containing 0.2% TFA. The amount of hippuric acid produced was quantified by HPLC as described in Example 6.
Km and Vmax values were calculated using the ENZFITTER software programme (Biosoft, Perkin Elmer).

[2] = Conversion of Hipp-Glu by purified HCPB mutants, 30 minutes, HPLC (Example 17); details: 0.5 mM substrate, 30 minutes at 37° C.
Procedure: (§1) Purified mutants of human CPB (D253K; [G251K,D253R]; [G251N,D253R]; [I201S,D253K]; [G251N,D253K]; [Q54R,D145A,D253K]; [G251T,D253K]; [G251S,D253K]; [A248N,G251N,D253K]; [A248S,G251N,D253K] and [S205N,G251N,D253K]—described in Examples 3, 12, 13, 16, 28, 30, 31, 32 and 33) were assayed for their ability to convert hippuryl-L-glutamic acid (Hipp-Glu—Reference Example 1), hippuryl-L-aspartic acid (Hipp-Asp—Reference Example 2) and hippuryl-L-arginine (Sigma Chemical Company—cat no. H6625) to hippuric acid using a HPLC based assay similar to that described in Example 6.
(§2) Samples were incubated for 30 minutes at 37° C. The reactions were terminated by the addition of 500 μl of 40% methanol, 60% distilled water, 0.2% trifluoro acetic acid and the amount of hippuric acid generated was quantitated by HPLC as described in Example 6 but using a mobile phase of 20% methanol, 80% 50 mM phosphate buffer, pH 6.5. Hippuric acid was detected at 230 nm. The results are shown in Table 5 and are expressed as the percentage conversion of substrate into product in 30 minutes at 37° C.

[3] = Conversion of Hipp-Asp by purified HCPB mutants, 30 minutes, HPLC (Example 17); details: 0.5 mM substrate, 30 minutes at 37° C.
Procedure: as §1, §2

[4] = Conversion of Hipp-Arg by purified HCPB mutants, 30 minutes, HPLC (Example 17); details: 0.5 mM substrate, 30 minutes at 37° C.
Procedure: as §1, §2

[5] = Conversion of Hipp-Glu by periplasmic shockate of HCPB mutants, 24 h (Example 18); details: for Hipp-Glu (% conversion): 24 h at 37° C.
Procedure: (§3) The activity of [G251T,D253K]HCPB was measured using the assay conditions described in Example 17 but using either 50 μl of a neat or 1 in 10 or 1 in 100 dilution of [G251T,D253K]HCPB crude E.coli periplasmic shockate (shockate) sample in place of purified enzyme. Samples were incubated for 24 h at 37° C. […] For other HCPB mutants, the reaction volume was 250 μl and contained 125 μl of neat shockate or 1 in 50 dilution of shockate. The shockate samples were prepared as described in Example 16. The amount of Hippuric acid produced in 24 h was quantified by HPLC as described in Example 17 and the results are shown in Table 6 and are expressed as the percentage conversion of substrate into product in 24 h at 37° C.

[6] = Conversion of Hipp-Asp by periplasmic shockate of HCPB mutants, 24 h (Example 18); details: 24 h at 37° C.
Procedure: as §3

[7] = Conversion of Hipp-Arg by periplasmic shockate of HCPB mutants, 24 h (Example 18); details: 24 h at 37° C.
Procedure: as §3

[8] = Conversion of prodrug of Example 24 to drug of Example 25 by HCPB mutants, HPLC (Example 20); details: 0.5 mM prodrug of Example 24, 5 minutes at 37° C.
Procedure: The reaction was stopped by adding MeCN (500 μl) plus 0.2% Trifluoroacetic acid. The amount of drug produced was then quantified by HPLC.
HPLC separation was carried out as described in Example 6 except that a mobile phase of 70% MeCN, 30% distilled water and 0.1% trifluoroacetic acid was used to achieve separation of prodrug (retention time 3.8 minutes) and drug (retention time 4.9 minutes) and the compounds were detected at 260 nm. The amount of drug produced was quantified from calibration curves generated with known amounts of drug.
The amount of [Q54R,D145A,D253K]HCPB and [G251T,D253K]HCPB mutants was reduced to 0.75 μg in the reaction mixture.

[9] = Activity against Hipp-Glu in crude E. coli periplasmic shockate relative to D253K or D253R HCPB (Example 16)
Text: (§4) A number of other mutant HCPBs have been constructed in a similar manner to the methods described in Reference Examples 7 and 8, and Examples 12, 13, 14 and 15. In each case oligos were constructed to introduce specific changes in the gene sequence by methods similar to those described above. In some cases additional mutations were identified upon complete sequencing of the mutated gene, and these were presumably introduced during the PCR reactions. Mutants with enzyme activity against substrate analogues (see Example 18 below) have been identified, and examples of these are given in Table 4 below. […] This material is subsequently referred to as periplasmic shockate or shockate and is prepared by the following procedure.
(§5) 1. A single colony was used to inoculate 75 ml of L-broth nutrient media containing 10 μg/ml tetracycline and arabinose to a final concentration of 0.01% (w/v). Incubation was performed at 20° C. with shaking (250 rpm) for about 60 hours.
(§6) 2. The cells were then harvested by centrifugation at 4° C.
(§7) 3. The cell pellet was re-suspended in 300 micro-liters of 20% sucrose (w/v) containing 1 mM EDTA in 200 mM Tris-HCl at pH7.5, and incubated at room-temperature for 15 minutes.
(§8) 4. Periplasmic shockate was generated by the addition of 450 micro-liters of distilled water, and a further incubation at room-temperature for 15 minutes.
(§9) 5. Cellular remains were removed by centrifugation, and the supernatant assayed for enzyme activity as soon as possible after preparation and kept at 4° C. prior to assay.
The activity of [G251T,D253K]HCPB was measured using the assay conditions described in Example 17 but using either 50 μl of a neat or 1 in 10 or 1 in 100 dilution of [G251T,D253K]HCPB crude E.coli periplasmic shockate (shockate) sample in place of purified enzyme. Samples were incubated for 24 h at 37° C. […] The amount of Hippuric acid produced in 24 h was quantified by HPLC as described in Example 17 and the results are shown in Table 6 and are expressed as the percentage conversion of substrate into product in 24 h at 37° C.

[10] = Activity against Hipp-Asp in crude E. coli periplasmic shockate relative to D253K or D253R HCPB (Example 16)
Text: as §4, §5, §6, §7, §8, §9, §3

[11] = Conversion of Hipp-Asp to hippuric acid by mutant and native human CPB, HPLC assay (Example 6); details: 5 hr at 37° C.; 4 μg enzyme; 0.5 mM substrate
Procedure: (§10) Purified mutants of human CPB (D253K and D253R; Examples 1-3) and native human CPB, produced as described in Reference Example 12, were assayed for their ability to convert either hippuryl-L-aspartic acid (Hipp-Asp—Reference Example 2), hippuryl-L-glutamic acid (Hipp-Glu—Reference Example 1) or hippuryl-L-arginine (Sigma Chemical Company—cat no. H6625) to hippuric acid using a HPLC based assay.
(§11) The reaction mixture (250 μl) contained 4 μg human CPB (native or mutant) and 0.5 mM Hipp-Asp or Hipp-Glu in 0.025 M Tris-HCL, pH 7.5. Samples were incubated for 5 hr at 37° C. The reactions were terminated by the addition of 250 μl of 80% methanol, 20% distilled water, 0.2% trifluoro acetic acid and the amount of hippuric acid generated was quantified by HPLC.
(§12) HPLC analysis was carried out using a Hewlett Packard 1090 Series 11 (with diode array) HPLC system. Samples (50 μl) were injected onto a Hichrom Hi-RPB column (25 cm) and separated using a mobile phase of 40% methanol, 60% distilled water, 0.1% trifluoro acetic acid at a flow rate of 1 ml/min. The amount of product (hippuric acid) produced was determined from calibration curves generated with known amounts of hippuric acid (Sigma-H6375). The results are shown in Table 1 and are expressed as the percentage conversion of substrate into product in 5 hr at 37° C. with 4 μg enzyme.

[12] = Conversion of Hipp-Glu to hippuric acid by mutant and native human CPB, HPLC assay (Example 6); details: 5 hr at 37° C.; 4 μg enzyme; 0.5 mM substrate
Procedure: as §10, §11, §12

[13] = Conversion of Hipp-Arg to hippuric acid by mutant and native human CPB, HPLC assay (Example 6); details: 5 hr at 37° C.; 4 μg enzyme
Procedure: as §10, §11, §12

[14] = shockate concentration in reaction mixture 1 %
[15] = shockate concentration in reaction mixture 10 %

B1: [G251T,D253K]: HCPB mutant with G251T and D253K, (His)6-c-myc tag (protein, UniProt P15086 111-417, looked up, variant G251T D253K)
Carboxypeptidase B: ATGHSYEKYNKWETIEAWTQQVATENPALISRSVIGTTFEGRAIYLLKVGKAGQNKPAIFMDCGFHAREWISPAFCQWFVREAVRTYGREIQVTELLDKLDFYVLPVLNIDGYIYTWTKSRFWRKTRSTHTGSSCIGTDPNRNFDAGWCEIGASRNPCDETYCGPAAESEKETKALADFIRNKLSSIKAYLTIHSYSQMMIYPYSYAYKLGENNAELNALAKATVKELASLHGTKYTYGPGATTIYPAAGTSKDWAYDQGIRYSFTFELRDTGRYGFLLPESQIRATCEETFLAIKYVASYVLEHLY
modifications: (His)6-c-myc tag
Km [1]: 1100 µM | kcat, Hipp-Glu [1]: 75 s⁻¹ | Hipp-Glu (% conversion) ([2]; enzyme 0.02 μg/ml): 8.2% | Hipp-Glu (% conversion) ([2]; enzyme 25 μg/ml): 100% | Hipp-Asp (% conversion) ([3]; enzyme 0.02 μg/ml): 0% | Hipp-Asp (% conversion) ([3]; enzyme 25 μg/ml): 14% | Hipp-Arg (% conversion) ([4]; enzyme 0.02 μg/ml): 0% | Hipp-Arg (% conversion) ([4]; enzyme 25 μg/ml): 5.2% | Hipp-Glu (% conversion) ([5]; shockate concentration in reaction mixture 0.1 %): 60% | Hipp-Glu (% conversion) [5, 14]: 93% | Hipp-Glu (% conversion) [5, 15]: 100% | fold more active against Hipp-Glu compared to Hipp-Arg ([5]; shockate samples, 24 h): over 900 fold | fold more active than D253K at converting Hipp-Glu to hippuric acid ([5]; shockate samples, 24 h): at least 50 fold | Hipp-Asp (% conversion) [6, 14]: 0% | Hipp-Asp (% conversion) [6, 15]: 2.6% | Hipp-Arg (% conversion) [7, 14]: 0.1% | Hipp-Arg (% conversion) [7, 15]: 0.8% | Prodrug Hydrolysis (%) ([8]; enzyme 1.5 μg/ml): 36.0%

B2: [I201S, D253K]: HCPB mutant with I201S and D253K (protein, UniProt P15086 111-417, looked up, variant I201S D253K)
Carboxypeptidase B: B1 Carboxypeptidase B with I201S, T251G
Hipp-Glu, activity relative to D253K HCPB or D253R HCPB [9]: NAD (No activity detected) | Hipp-Asp, activity relative to D253K HCPB or D253R HCPB [10]: b (activity equivalent to D253R HCPB) | Hipp-Glu (% conversion) ([2]; enzyme 2.5 μg/ml): 4.6% | Hipp-Glu (% conversion) ([2]; enzyme 25 μg/ml): 27.8% | Hipp-Asp (% conversion) ([3]; enzyme 2.5 μg/ml): 5.8% | Hipp-Asp (% conversion) ([3]; enzyme 25 μg/ml): 33.1% | Hipp-Arg (% conversion) ([4]; enzyme 2.5 μg/ml): 0% | Hipp-Arg (% conversion) ([4]; enzyme 25 μg/ml): 0% | Prodrug Hydrolysis (%) ([8]; enzyme 15 μg/ml): 72.6%

B3: D253R HCPB: mature HCPB with aspartate 253 changed to arginine, C-terminal (His)6-c-myc tag (protein, UniProt P15086 111-417, looked up, variant D253R)
Carboxypeptidase B: B1 Carboxypeptidase B with T251G, K253R
modifications: (His)6-c-myc tag
Hipp-Asp (% conversion to Hippuric acid) [11]: 72% | Hipp-Glu (% conversion to Hippuric acid) [12]: 52% | Hipp-Arg (% conversion to Hippuric acid) [13]: 3% | Prodrug Hydrolysis (%) ([8]; enzyme 15 μg/ml): 18.3%
